Patent publication US8153413B2, “High alkaline protease and use thereof” (Japan Agency for Marine-Earth Science and Technology, priority 2004, dated 2012)

B1: alkaline protease ALTP: purified high alkaline protease from Alkaliphillus transvaalensis, mature enzyme amino acid sequence SEQ ID NO: 3 (protein, listed as Alkaliphillus transvaalensis)
chain: AQSTPWGVTRVQAPNVWNRGFTGSGVRVAVLDTGIHSSHEDLTVSGGYSVFGDSPYNDVQGHGTHVAGTIAARNNSVGVIGVAYNAQLYAVKVLNNQGSGTLAGIAQGIEWARQNNMHVINMSLGGTSGSTTLQNAVNAAYNAGILVVAAAGNSGNSAGTGDNVGFPARYPNAMAVAATTSGNVRASFSSTGPAVEIAAPGQDINSTYPTNTYRSLNGTSMAAPHVAGVAALLKSARPAVTAAGIRNAMNSTALNLGNSNWYGNGLVRANNALDMVLSY

Experiments:
invention enzyme = test: Hydrolysis of natural proteins relative to casein; type: biochemical, Alkaliphillus transvaalensis
casein [1] = test: Optimum temperature, casein method; type: biochemical; conditions: for influence of Ca2+ / calcium chloride on optimum temperature: calcium chloride 5 mmol/L
Description: 0.1 ml of the invention enzyme solution was added to 1 ml of 50 mmol/L borate buffer (pH 10.0) containing 0.5% (w/v) casein as a substrate, and a reaction was conducted at a temperature of from 30 to 85° C. for 15 minutes. Activity was measured by the casein method. Relative activity at each temperature is shown in FIG. 2A in which activity in the absence of calcium chloride at 50° C. is defined as 100%. “●” indicates relative activity in the absence of calcium chloride, and “∘” relative activity in the presence of calcium chloride.

[2] = Thermostability, residual activity after heat treatment by casein method; type: physicochemical; conditions: for influence of Ca2+ / calcium chloride on thermostability: calcium chloride 5 mmol/L
Description: The invention enzyme was added to 50 mmol/L borate buffer (pH 10.0), and heat treatment was conducted at each temperature of from 30 to 75° C. for 10 minutes. The residual activity was measured by the casein method. The residual activity after the heat treatment is shown in FIG. 2B in which activity before the heat treatment is defined as 100%.

casein [3] = test: Optimum pH / active pH, casein method; type: biochemical; conditions: 1% (w/v) casein, 40° C., 15 minutes, highest activity in 50 mmol/L potassium chloride/sodium hydroxide buffer
Description: 1 ml of each 50 mmol/L buffer containing 1% (w/v) casein (Hammerstein, Merck) was warmed at 40° C. for 5 minutes, and 0.1 ml of the enzyme solution was then added. A reaction was conducted for from 15 to 20 minutes. Subsequently, 2 ml of a trichloroacetic acid solution (TCA solution: 0.11 mol/L trichloroacetic acid, 0.22 mol/L sodium acetate and 0.33 mol/L acetic acid) was added to terminate the reaction. The reaction solution was allowed to stand at room temperature for 10 minutes, and the acid-modified protein was filtered (No. 2 filter paper, manufactured by Watman). 2.5 ml of an alkaline copper reagent [1% (w/v) potassium sodium tartrate: 1% (w/v) copper sulfate: 2% (w/v) sodium carbonate/0.1 mol/L sodium hydroxide=1:1:100] was added to 0.5 ml of the filtrate, and the mixture was warmed at 30° C. for 10 minutes. Thereafter, 0.25 ml of a dilute phenol reagent [phenol reagent (manufactured by Kanto Kagaku) diluted twofold with deionized water] was added, and the mixture was warmed at 30° C. for 30 minutes. Absorbance at 660 nm was measured with a spectrophotometer to obtain an amount of an acid-soluble protein hydrolyzate. By the way, a system obtained by mixing the enzyme reaction system with a reaction terminator and adding the enzyme solution thereto was used as a blank.
Herein, one unit (PU) of the enzyme referred to an amount of an enzyme in which to liberate the acid-soluble protein hydrolyzate corresponding to 1 μmol of tyrosine for 1 minute under the foregoing reaction conditions.
The invention enzyme was reacted at 40° C. for 15 minutes in various buffers of pH 3.5 to 12.6 containing 1% (w/v) casein as a substrate, and the enzymatic activity at each pH was measured. The results thereof are shown in FIG. 1A in terms of relative activity when the highest activity was defined as 100%.
Acetate buffer ( ? ): pH 3.5 to 6.0, phosphate buffer (▪): pH 6.5 to 8.1, carbonate buffer (◯): pH 9.0 to 11.0, phosphate/sodium hydroxide buffer (●): pH 11.0 to 12.2, and potassium chloride/sodium hydroxide buffer (▴): pH 11.5 to 12.6.

acidic insulin B-chain = test: Cleavage of acidic insulin B-chain (LC/MS/MS); type: biochemical; conditions: 30° C.
Description: 3 ng of alkaline protease ALTP was added to a solution obtained by adding 0.1 mg of insulin B-chain to 100 μl of 0.1 mol/L Tris-hydrochloride buffer (pH 8.0), and a reaction was conducted at 30° C. for from 1 to 5 minutes. 5 μl of the solution was collected after 1 minute, 2 minutes and 5 minutes from the start-up of the reaction, and the reaction was terminated by addition of 50 μl of a 2% (v/v) acetonitrile/0.1% trifluoroacetic acid solution (pH 2.2). The reaction solutions were analyzed by liquid chromatograph/tandem mass analyzer (LC/MS/MS). A mixture of fragmental peptides digested with alkaline protease ALTP of the invention was separated and concentrated by capillary HPLC, and ionized to obtain MS and MS/MS spectra. The MS/MS data of the peptides was subjected to Turbo Sequest search to identify the digested acidic insulin B-chain fragments and determine the cleavage sites. Because of the search with the MS/MS data, the highly reliable identification results were obtained.
A reaction was conducted at 30° C. for 24 hours under the same conditions as in (i) by changing the concentration of alkaline protease ALTP to 300 ng. After the termination of the reaction, the acidic insulin B-chain fragment digested with alkaline protease ALTP was identified by the foregoing method to determine cleavage sites. […]

[4] = listed as novel alkaline protease

Molecule	hydrolytic activity, casein defined as 100% (invention enzyme)	optimum temperature (casein [1]; borate buffer pH 10.0, casein, 15 minutes) [°C]	influence of Ca2+ / calcium chloride on optimum temperature (casein [1])	influence of Ca2+ / calcium chloride on optimum temperature (casein [1]; listed as invention enzyme)	influence of Ca2+ / calcium chloride on optimum temperature (casein [1]; [4])	influence of Ca2+ / calcium chloride on thermostability [2]	influence of Ca2+ / calcium chloride on thermostability ([2]; listed as invention enzyme)	influence of Ca2+ / calcium chloride on thermostability [2, 4]	temperature up to which stable without activity drop by heating ([2]; pH 10 for 10 minutes)	optimum pH (casein [3])	optimum pH (casein [3]; listed as invention enzyme)	optimum pH (casein [3]; [4])	bond cleaved first / at the initial stage (acidic insulin B-chain; 3 ng ALTP, within 5 minutes)	peptide bonds of 29 peptide bonds cleaved (acidic insulin B-chain; 300 ng ALTP, within 24 hours)
hemoglobin	approximately 73%	–	–	–	–	–	–	–	–	–	–	–	–	–
B1	–	70	little influenced	unchanged	still unchanged	No improvement	unchanged	still unchanged	up to 65 °C	12.6	approximately 12.6	approximately 12.6	Leu-Tyr	26
